According to publication PMC7749050 (ACS synthetic biology, 2020):

Columns and labels:
Experiment in all cases: two-hybrid
[1] = molecular target: Rhodopseudomonas palustris BphP1 (RpBphP1), mammalian two-hybrid construct (Rhodopseudomonas palustris)
[2] = molecular target: T1, GAL4-BD-DrBphP, mammalian two-hybrid bait (Deinococcus radiodurans (strain not …, UniProt Q9RZA4))
[3] = molecular target: T1, GAL4-BD-DrBphP, mammalian two-hybrid …; remark: listed apart in the source

T1 sequence (Q9RZA4 whole entry, looked up, the tested form may be a part): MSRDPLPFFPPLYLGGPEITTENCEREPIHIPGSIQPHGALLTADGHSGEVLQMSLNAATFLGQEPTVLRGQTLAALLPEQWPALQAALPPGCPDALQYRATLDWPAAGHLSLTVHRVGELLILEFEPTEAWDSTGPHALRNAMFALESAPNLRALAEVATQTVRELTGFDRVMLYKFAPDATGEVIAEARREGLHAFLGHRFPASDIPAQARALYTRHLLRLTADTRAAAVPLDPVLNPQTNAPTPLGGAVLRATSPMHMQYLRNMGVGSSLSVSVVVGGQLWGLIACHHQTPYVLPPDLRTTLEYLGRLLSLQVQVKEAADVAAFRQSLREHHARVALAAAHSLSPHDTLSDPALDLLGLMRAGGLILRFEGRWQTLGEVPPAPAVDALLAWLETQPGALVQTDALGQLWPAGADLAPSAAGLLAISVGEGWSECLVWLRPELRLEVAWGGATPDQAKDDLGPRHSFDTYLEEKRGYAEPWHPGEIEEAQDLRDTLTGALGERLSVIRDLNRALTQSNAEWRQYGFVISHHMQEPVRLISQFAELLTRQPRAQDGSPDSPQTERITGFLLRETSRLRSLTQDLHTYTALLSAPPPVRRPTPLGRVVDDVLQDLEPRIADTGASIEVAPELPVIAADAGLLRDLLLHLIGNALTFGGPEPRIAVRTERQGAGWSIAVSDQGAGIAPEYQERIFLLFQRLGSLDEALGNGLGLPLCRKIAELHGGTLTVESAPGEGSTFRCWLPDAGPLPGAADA

Molecule | fold increase of luciferase expression, 775-nm light over dark [1] | fold increase of GFP level, 654-nm light over dark [2] | fold increase of luciferase expression, 654-nm light over dark [3]
PpsR2, mammalian two-hybrid construct (natural protein) | 2.95 fold |  | 
LDB-3-p65, mammalian two-hybrid prey (VHH) VHH: EVQLQASGGGFVQPGGSLRLSCAASGFTWDHYIMGWFRQAPGKEREFVSAISENGDAWNYYADSVKGRFTISRDNSKNTVYLQMNSLRAEDTATYYCAIGFDVPSGRSWQGSHFWMYWGQGTQVTVSS |  | ~44 fold | ~19.5 fold
LDB-14-p65, mammalian two-hybrid prey (VHH) VHH: EVQLQASGGGFVQPGGSLRLSCAASGTTSRWESMGWFRQAPGKEREFVSAISWQNNSVPYYADSVKGRFTISRDNSKNTVYLQMNSLRAEDTATYYCAAQHNFLGHRYWGQGTQVTVSS |  | ~39 fold | ~19.1 fold
